Measurements as given in the nanobody polyreactivity screen of Harvey et al. (2022).

Assay: yeast display, Sf9 membrane polyspecificity reagent, FACS + sequencing; frameworks hold sequencing errors
In short: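 Galactose induction of a Saccharomyces cerevisiae BJ5465 synthetic nanobody display library ran 36–48 hours. The cells were then stained for 1 hour at 4 °C with 10% biotinylated, detergent-solubilized Sf9 membrane reagent, pulled down on streptavidin microbeads and FACS-sorted into low and high (top ~1%) gates on expression and reagent-binding fluorescence. Labels for polyreactivity follow the gate of origin.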

| Sequence | polyreactivity (PSR sort gate) |
| --- | --- |
| QVQIVESGAGLVQAGGTLRISCAPSGITFTPYAMGWYRQAPGKEWELVATITSDGGSTYYADSVKGRFTISRDNAKNTVYLQKNSLKPEETAVYYCAAADHAWLYGWGYSLDVWYYYWGQGNQVTVSS | low polyreactivity |
| QVQLVESGGGLVQAGGSLRLSCAASGRIFYKYALGGYRQAPGKERELVAAISYSGGSTYYADSVKGRFTISRDNAKNTVYLQMKSLKPEDNAVYYCNAKPPFGVRSWGDYWGQGTQVTVSS | low polyreactivity |
| QVQLVESGGGLVQAGGSLRLSCAASGSTFAPYAMGWYRQAPGKERELVASISWRGGRTYYADSVKGRFTISRDNAKNTVYLQMNSLKPEDTAVYYCATSRYRVDRWGPPYRYDYWGQGTQVTVSS | high polyreactivity |
| QVQLVESGGGLDQAGGSLRLSCAASGFTFPGNAMGWYRQSPGKEREFVAGISRSGDSTYYADSVKGRFTISRDNAKNTVYLQMNSLKPEDTAVYYCAARNPYRYFYYYEYWGQGTQVTVSS | low polyreactivity |
| QVQLVESGGGLFQAGGSLRLSCAASGIIFYDYAMGRYRQPPAKERELVAAITSNGDNTYYADSVKWRFTISRDNAKNTVYLQMNILKPEDTAVYYCAVDGSFAADFDNYLEEYGYWGQGTQVTVSS | low polyreactivity |
| QVQLVESGGGLVQAGGSLRLSCAASGFTFSYYAMGWYRQAPGKERELVAAITKRGGRTYYADSVKGRFTISRDNAKNTVYLQMNSLKPEDTAVYYCAVQARNAFYRPAFDYWGQGTQVTVSS | high polyreactivity |
| QVQLVESGGGLVQAGGSLRLSCAASGSTFPYVMGWYRQAPGKERELVAAISWSGTSTYYADSVKGRFTISRDNAKNTVYLQMNSLKPEDTAVYYCNVVYRVVSPSGGGYWGQGTQVTVSS | high polyreactivity |
| QVQLVESGGGLVQAGGILRLSCAASGSTFDINTMGWYRQAPGKEREFVAAITDSDDSTYYADSVKGRFTISRDHAKNTVYLLMNSLKPEDTAVDYCNYDYWGQGTQVTVAS | low polyreactivity |
| QVQLVESGGGLVQAGGSLSLSCAASGRTFSANTMGWSRQAPGKERELVAAISKSGGSTYYADSVKGRFTISRDNAKNTVYLQMNSLKPEDTAVYYCAARTSGYWYSYGSWGQGTQVTVSS | high polyreactivity |
| QVQLVESGGGLVQAGGSLRLSCAASGFTLGSNVMGWYRQAPGKERELVAGISQSGGRTFYADSVKGRFTISRDNAKNTVYLQMNSLKPEDTAVYYCAARRYAVEGSKNYYWGQGTQVTVSS | low polyreactivity |
| QVQLVESGGGLVQAGGILRLSCASSGRTFAWYAMGWYRPAPGKERELVAAITTRGSGTYYADSVKGRFTISRDNAKNTVYLQMNSLKPEDTAVYYGAKDPITATTLDERVYYWGQGTQLTVSS | low polyreactivity |
| QVQLVESGGGLVQAGGSLRLSCAASGSTFTQYVMGWYRQAPGKERDLVAAISDSGSTYYADSVKGRFTISRDNAKNTVYLQMNRLKPEDTAVYFCNADDVDFYYGYGYLDYDYWGQGTQVTVSS | low polyreactivity |
| QVQLVESGGGLVQAGGSLRLSCAASGRIFASYAMGWYRQAPGKERELVAAISKSGGRTYYADSVKGRFTISRDNAKNTVYLQMNSLKPEDTAVYYCAADGYRYYSWTRFSYYSGYDYWGQGTQVTVSS | high polyreactivity |
| QVQLVESGGGLVQAGGSLRLSCAASGSIFSSYAMGWYRQAPGKDRELVAAITRSGGSTYYADSVKGRFTISRDNAKNTVYVQMNSLKPEDTAVYYCNARGKGHYYWGQGTQVTVSS | high polyreactivity |
| QVQLVESAGGLVQAGGSLRLSCAASGIIFPAYAMGWYRQAPGKERELVAGISGRGGSTYYADSVKGRFTISRDNAKNTVYLQMNSLKPEDTAVYYCAAYAGGPYKFDYWGQGTQVTVSS | high polyreactivity |
| QVQLVESGGGLVQAGGSLRLSCAASGRTFLSYAMGWYRQAPGKEREFVASITLSGGSTYYADSVKGRFTISRDNAKNTVYLQMNSLKPEDTAVYYCNAELYWLPYDYWGQGTQVTVSS | low polyreactivity |
| QVQLVESGGGLVQAGVSLRLSCAAYGFTFTGYAMGWYRQAPGKEMEFVAAITTGGGSTYYADSVKGRFTISRDNAKNTVYFQMNSLKPEDTAVYYCAKSRQYIGGFDYWGQGTQVTVSS | high polyreactivity |
| QDQLVESGGGLVQAGGSLRLSCAASGSIFYRNAMGWYRQAPGKERELVAAITRGGITNYADSVKGRFTISRDNAKNTVYLQMNSLKPEDTAVYYCPRVPGRTTQYDYWGQGTQVTVSS | low polyreactivity |
| QVQLVESGGGLVQAGGSLRLSCAASGRIFSRNAMGWYRQAPGKERELVAGISARGGRTYYADSVKGRFTISRDNAKNTVYLQMNSLKPEDTAVYYCNARTGYQDGTYGNDYWGQGTQVTVSS | high polyreactivity |
| QVQLVESGGGLVQAGGSLRLSCAASGSTFSRYAMGWYRQAPGKERELVAAISSRGGSTYYADSVKGRFTISRDNAKNTVYLQMNSLKPEDTAVYYCNALTSYQNHVYPYDYWGQGTQVTVSS | high polyreactivity |
| QVQLVESGGGLVQAGGSLRLSCAASGRTFVGYVMGWDRQAPGKERELVAAISTSGGRTYYADSVKGRFTISRDNAKNTGYLQMNSLKPEDTAVYYCNAVSKQPIGYEYWGQGSQVTVSS | high polyreactivity |
| QVQLVESGGGLVQAGGSLRLSCAASGRTFIRYAMGWYRQAPGKERELVAAISSRGGRTHYADSVKGRFTISRDNAKNTVYLQMNSLKPEDTAVYYCAADLTYVTVPGASYDYWGQGTQVTVSS | low polyreactivity |

| Sequence | polyreactivity (PSR sort gate) |
| --- | --- |
| QVQLVESGGGLVQAGGSLRLSCAPSGLIFASYAMGWYRQAPGKERELVAAITSSGGSTYYADSVKGRFTISRDNAKNTVYLQMNSLKPEDTAVYYCAADIYTYNLFYHWRWLDYNYWGQGTQVTVSS | high polyreactivity |
| QVQLVESGGGLVQAGGSLRLSCAASGSIFRTNAMGWYRQAPGKEREFVASISSDSGNTYYADSVKGRFTISRDNAKYTVYLQMNSLKPEDTAVYYCARRKVRYWSYRAANYYWGQGTQVTVSS | low polyreactivity |
| QVQRVESGGGLVQAGGSLRVSCAASGSTFYVYGMGWYRQAPGKERELVAAISWSGGDTYYADSVKGRCTISRDNAKNTVYLQMNRLKPEDTAVYYCAAVYNYPVVGEYDYWGQGTQVTVSA | high polyreactivity |
| QVQLVESGGGLVQAGGSLRLSCAASGSIFGYYAMGWYRQAPGKERELVAAISTSGGRTYYADSVKGRFTISRDNAKNTVYFQMNSLKPEDTAVYYCAARVYSTSVVAYYYWGQGTQVTVSS | high polyreactivity |
| QVQLVESGGGLVQAGGSLRLSCAASGTFIGYAMGWYRQAPGKERELVAAIDVSGGSTYYADSVKGRFTISRDNAKNTVYLQMNSLKPEDTAVYYCATDRGPEVVLYDYWGHGTQVTVSS | low polyreactivity |
| QVQLVESGGGLVQAGGSLRLSCAASGSIFGQYVMGWYRQAPGKERELVAAITRRGGTTYYADSVKGRFTISRDNAKNTVYLQMNSLKPEDTAVYYCAARVRVPQTARLHEYWGQGTQVTVSS | high polyreactivity |
| QVQLVESGGGLVQAGGSLRLSCAASGRIFPGYAMGWYRQAPGKERELVAGISNDASTNYADSVKGRFTISRDNAKNTVYLQMNSLKPEDTAVFYCAAEISYLSVPRYDYWGQGTQVTVSS | low polyreactivity |
| QVHLVESGGGLVQAGGSLRLSCAASGIIFAYYAMGWYRQAPGKERELVAAISSTGSTHYADSVKGRFTISRDNAKNTVYLQMNSLKPEDTAVYYCNAYYYYRFKPSHPGLRSYYWGQGTQVTVSS | high polyreactivity |
| QVQLVESGGGLVKAGGSLRLSCAASGRTFALYAMGWYRLAPGKERELVAGITFRGGSTYYADSVKGRFRISRDNAKNTVYLQMNSLKPEDTAVYYCAAERWRWYYSWTMDYWGQGTQVTVSS | high polyreactivity |
| QVQLVESGGGLVQAGGSLRLSCAASGIIFVYNAMGWYRPAPGKARELVAAINWRGDGTYYADSVKGRFTISRDNAKNTVYLQMNCLKPEDTAVYYCNAVRFRPNSHYRPVGYDYWGQGTQVTVSS | low polyreactivity |
| QVQLVESGGGLVQAGGSLRLSCAASGFIFPTYAMGWYRQAPGKERELVAAISRSGGRTYYADSVKGRFTISRDNAKNTVYLQKNSLKPEDTAVYYCAAAYLRRVAYDYWGQGTQVTVSS | high polyreactivity |
| QVQLVESGGGLVQAGGSLRLSCAASGSIFRYYAMGWSRQAPGKERELVAAISRRGSSTYYADSVKGRFTISRDNAKKTVYLQMNSLKPEDTAVYYCAAGDFKQYDYWGQGTQVTVSS | high polyreactivity |
| QVQLVESGGGLVQAGGSLRLSCAASGSIFYSYAMGWYRQAPGKEREFVATITWSGGRTYYADSVKGRFTISRDNAKNTFYLQMNSLKPEDTAVYYCNKRLFPYKGDYWGQGTQVTVSS | low polyreactivity |
| QVQLVESGGGLVQAGGSLRLSCAASGRIFTPNAMGWSRQAPGKERELVAAITWSGDNTYADSVKGRFTISRDNAKNTVYLQMNSLKPEDTAVYYCAAAYGYGHKKYGYWGQGTQVTVSS | low polyreactivity |
| QVQLVESGGGLVQAGGSLRLSCAASGFIFARNVMGWSRQAPGKERELVAAISWSGGSTYYADSVKGRFTISRDNAKNTVYLQMNSLKPEDTAVYYCNKQFPFSKYYIMGYWGQGTQVTVSS | high polyreactivity |
| QGQLVESGGRLVQAGGSLRLSCAASGRIFGWYDMGWYREEPGKERELVAAINWSGGSTYYADSVKGRFTISRDNEKNTFYLQMNCLKPEDTAVYYCAADVAQVGYQVGVSEIYPGYEYWGQGTQVNVSS | low polyreactivity |
| QVQLVESGGGLVQAGGSLRLSCAASGSIFVYYAMGWYRQAPGKERELVAGISTSGGSTYYADSVKGRFTISRDNAKNTVYLQMNSLKPEDTAVYYCAAVDSFGYYKLYEYWGQGTQVTVSS | high polyreactivity |
| QVQLVESGGGLVQAGGSLRLSCAASGSIFSTYAMGWYRQAPGKERELVATINYSGGSTYYADSVKGRFTISRDNAKNTVYLQMNSLKPEDTAVYYCNTGPFVGFDYWGQGTQVTVSS | low polyreactivity |
| QVHLVESGGGLVQAGGSLRLSCAASGLTFAYYAMGWYRQAPGKERELVAAITDSAGNTYYADSVKGRFTISRDNAKNTVYLQMNSLKQEDTAVYYCAAAWPSTGLLYVLGYSGYGYWGQGTQVTVSS | low polyreactivity |
| QVQLVESGGGLVQAGGRLRLSCAASGSIFYHYAMGWSRQAPGKERELVAAISQSGGGTYYADSVKGRFTISRDYAKNTVYLQMNSLKPEDTAVYYCAADRTGPYDYWGQGTQVTVSS | high polyreactivity |
| QVQLVESGGGLVQAGGSLRLSCAASGSIFDDYAMGWYRQSPGQERELVAAISWSGGSTYYADSVKGRFTISRDNAKNTDYLQMNSLKPDDTAVYYCAGYDYDYLYGEYYWGQGTQVTVSS | low polyreactivity |
